Measured values from US20120178113A1.

T1: full-length human recombinant IGFBP-4 (insulin-like growth factor binding protein-4) expressed in NS0 cell line, P22692
T1 chain: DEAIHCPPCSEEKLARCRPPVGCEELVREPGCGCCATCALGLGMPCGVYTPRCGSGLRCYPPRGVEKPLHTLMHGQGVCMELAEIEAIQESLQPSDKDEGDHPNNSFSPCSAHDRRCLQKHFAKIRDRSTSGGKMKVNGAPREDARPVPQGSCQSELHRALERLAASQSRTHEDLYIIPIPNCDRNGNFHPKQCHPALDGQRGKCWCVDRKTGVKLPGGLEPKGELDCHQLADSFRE


Biological target: T1, full-length human recombinant IGFBP-4 …

Protein | PAPP-A-dependent cleavage of IGFBP-4, determined by Western blotting
atherosclerotic PAPP-A (pregnancy-associated plasma protein-A purified from human atherosclerotic coronary arteries) (protein) EARGATEEPSPPSRALYFSGRGEQLRLRADLELPRDAFTLQVWLRAEGGQRSPAVITGLYDKCSYISRDRGWVVGIHTISDQDNKDPRYFFSLKTDRARQVTTINAHRSYLPGQWVYLAATYDGQFMKLYVNGAQVATSGEQVGGIFSPLTQKCKVLMLGGSALNHNYRGYIEHFSLWKVARTQREILSDMETHGAHTALPQLLLQENWDNVKHAWSPMKDGSSPKVEFSNAHGFLLDTSLEPPLCGQTLCDNTEVIASYNQLSSFRQPKVVRYRVVNLYEDDHKNPTVTREQVDFQHHQLAEAFKQYNISWELDVLEVSNSSLRRRLILANCDISKIGDENCDPECNHTLTGHDGGDCRHLRHPAFVKKQHNGVCDMDCNYERFNFDGGECCDPEITNVTQTCFDPDSPHRAYLDVNELKNILKLDGSTHLNIFFAKSSEEELAGVATWPWDKEALMHLGGIVLNPSFYGMPGHTHTMIHEIGHSLGLYHVFRGISEIQSCSDPCMETEPSFETGDLCNDTNPAPKHKSCGDPGPGNDTCGFHSFFNTPYNNFMSYADDDCTDSFTPNQVARMHCYLDLVYQGWQPSRKPAPVALAPQVLGHTTDSVTLEWFPPIDGHFFERELGSACHLCLEGRILVQYASNASSPMPCSPSGHWSPREAEGHPDVEQPCKSSVRTWSPNSAVNPHTVPPACPEPQGCYLELEFLYPLVPESLTIWVTFVSTDWDSSGAVNDIKLLAVSGKNISLGPQNVFCDVPLTIRLWDVGEEVYGIQIYTLDEHLEIDAAMLTSTADTPLCLQCKPLKYKVVRDPPLQMDVASILHLNRKFVDMDLNLGSVYQYWVITISGTEESEPSPAVTYIHGSGYCGDGIIQKDQGEQCDDMNKINGDGCSLFCRQEVSFNCIDEPSRCYFHDGDGVCEEFEQKTSIKDCGVYTPQGFLDQWASNASVSHQDQQCPGWVIIGQPAASQVCRTKVIDLSEGISQHAWYPCTISYPYSQLAQTTFWLRAYFSQPMVAAAVIVHLVTDGTYYGDQKQETISVQLLDTKDQSHDLGLHVLSCRNNPLIIPVVHDLSQPFYHSQAVRVSFSSPLVAISGVALRSFDNFDPVTLSSCQRGETYSPAEQSCVHFACEKTDCPELAVENASLNCSSSDRYHGAQCTVSCRTGYVLQIRRDDELIKSQTGPSVTVTCTEGKWNKQVACEPVDCSIPDHHQVYAASFSCPEGTTFGSQCSFQCRHPAQLKGNNSLLTCMEDGLWSFPEALCELMCLAPPPVPNADLQTARCRENKHKVGSFCKYKCKPGYHVPGSSRKSKKRAFKTQCTQDGSWQEGACVPVTCDPPPPKFHGLYQCTNGFQFNSECRIKCEDSDASQGLGSNVIHCRKDGTWNGSFHVCQEMQGQCSVPNELNSNLKLQCPDGYAIGSECATSCLDHNSESIILPMNVTVRDIPHWLNPTRVERVVCTAGLKWYPHPALIHCVKGCEPFMGDNYCDAINNRAFCNYDGGDCCTSTVKTKKVTPFPMSCDLQGDCACRDPQAQEHSRKDLRGYSHG | Atherosclerotic PAPP-A was shown to cleave IGFBP-4 with the same efficiency as recombinant PAPP-A
human recombinant PAPP-A (HyTest) (protein) EARGATEEPSPPSRALYFSGRGEQLRLRADLELPRDAFTLQVWLRAEGGQRSPAVITGLYDKCSYISRDRGWVVGIHTISDQDNKDPRYFFSLKTDRARQVTTINAHRSYLPGQWVYLAATYDGQFMKLYVNGAQVATSGEQVGGIFSPLTQKCKVLMLGGSALNHNYRGYIEHFSLWKVARTQREILSDMETHGAHTALPQLLLQENWDNVKHAWSPMKDGSSPKVEFSNAHGFLLDTSLEPPLCGQTLCDNTEVIASYNQLSSFRQPKVVRYRVVNLYEDDHKNPTVTREQVDFQHHQLAEAFKQYNISWELDVLEVSNSSLRRRLILANCDISKIGDENCDPECNHTLTGHDGGDCRHLRHPAFVKKQHNGVCDMDCNYERFNFDGGECCDPEITNVTQTCFDPDSPHRAYLDVNELKNILKLDGSTHLNIFFAKSSEEELAGVATWPWDKEALMHLGGIVLNPSFYGMPGHTHTMIHEIGHSLGLYHVFRGISEIQSCSDPCMETEPSFETGDLCNDTNPAPKHKSCGDPGPGNDTCGFHSFFNTPYNNFMSYADDDCTDSFTPNQVARMHCYLDLVYQGWQPSRKPAPVALAPQVLGHTTDSVTLEWFPPIDGHFFERELGSACHLCLEGRILVQYASNASSPMPCSPSGHWSPREAEGHPDVEQPCKSSVRTWSPNSAVNPHTVPPACPEPQGCYLELEFLYPLVPESLTIWVTFVSTDWDSSGAVNDIKLLAVSGKNISLGPQNVFCDVPLTIRLWDVGEEVYGIQIYTLDEHLEIDAAMLTSTADTPLCLQCKPLKYKVVRDPPLQMDVASILHLNRKFVDMDLNLGSVYQYWVITISGTEESEPSPAVTYIHGSGYCGDGIIQKDQGEQCDDMNKINGDGCSLFCRQEVSFNCIDEPSRCYFHDGDGVCEEFEQKTSIKDCGVYTPQGFLDQWASNASVSHQDQQCPGWVIIGQPAASQVCRTKVIDLSEGISQHAWYPCTISYPYSQLAQTTFWLRAYFSQPMVAAAVIVHLVTDGTYYGDQKQETISVQLLDTKDQSHDLGLHVLSCRNNPLIIPVVHDLSQPFYHSQAVRVSFSSPLVAISGVALRSFDNFDPVTLSSCQRGETYSPAEQSCVHFACEKTDCPELAVENASLNCSSSDRYHGAQCTVSCRTGYVLQIRRDDELIKSQTGPSVTVTCTEGKWNKQVACEPVDCSIPDHHQVYAASFSCPEGTTFGSQCSFQCRHPAQLKGNNSLLTCMEDGLWSFPEALCELMCLAPPPVPNADLQTARCRENKHKVGSFCKYKCKPGYHVPGSSRKSKKRAFKTQCTQDGSWQEGACVPVTCDPPPPKFHGLYQCTNGFQFNSECRIKCEDSDASQGLGSNVIHCRKDGTWNGSFHVCQEMQGQCSVPNELNSNLKLQCPDGYAIGSECATSCLDHNSESIILPMNVTVRDIPHWLNPTRVERVVCTAGLKWYPHPALIHCVKGCEPFMGDNYCDAINNRAFCNYDGGDCCTSTVKTKKVTPFPMSCDLQGDCACRDPQAQEHSRKDLRGYSHG | Atherosclerotic PAPP-A was shown to cleave IGFBP-4 with the same efficiency as recombinant PAPP-A
